Data: patent publication US10800847

How the values were obtained:
[1] = molecular target: HLA-Cw*1802 (Cw18) (human); assay: Luminex, iBead vs regular bead MFI, 1:8
[2] = molecular target: HLA-Cw*0702 (Cw7) (human); assay: Luminex, iBead vs regular bead MFI, 1:8
[3] = molecular target: Albumin (negative control beads) (human or bovine); assay: Luminex, iBead vs regular bead MFI, 1:8
[4] = molecular target: HLA-Cw*1502 (Cw15) (human); assay: Luminex, iBead vs regular bead MFI, 1:8
[5] = molecular target: HLA-Cw*0202 (Cw2) (human); assay: Luminex, iBead vs regular bead MFI, 1:8
[6] = molecular target: HLA-Cw*1701 (Cw17) (human); assay: Luminex, iBead vs regular bead MFI, 1:8
[7] = molecular target: HLA-Cw*1601 (Cw16) (human); assay: Luminex, iBead vs regular bead MFI, 1:8
[8] = molecular target: HLA-Cw*0401 (Cw4) (human); assay: Luminex, iBead vs regular bead MFI, 1:8
[9] = molecular target: HLA-Cw*1402 (Cw14) (human); assay: Luminex, iBead vs regular bead MFI, 1:8
[10] = molecular target: HLA-Cw*0501 (Cw5) (human); assay: Luminex, iBead vs regular bead MFI, 1:8
[11] = molecular target: HLA-Cw*1203 (Cw12) (human); assay: Luminex, iBead vs regular bead MFI, 1:8
[12] = molecular target: HLA-Cw*0304 (Cw10) (human); assay: Luminex, iBead vs regular bead MFI, 1:8
[13] = molecular target: HLA-Cw*0303 (Cw9) (human); assay: Luminex, iBead vs regular bead MFI, 1:8
[14] = molecular target: HLA-A*6801 (A68) single antigen on beads (human); assay: Luminex single-antigen regular beads (#7), IVIg 1:8
[15] = molecular target: HLA-A*3001 (A30) single antigen on beads (human); assay: as above
[16] = molecular target: HLA-A*6602 (A66) single antigen on beads (human); assay: as above
[17] = molecular target: HLA-A*3303 (A33) single antigen on beads (human); assay: as above
[18] = molecular target: HLA-A*2902 (A29) single antigen on beads (human); assay: as above
[19] = molecular target: HLA-A*3402 (A34) single antigen on beads (human); assay: as above
[20] = molecular target: HLA-A*3101 (A31) single antigen on beads (human); assay: as above
[21] = molecular target: HLA-A*3401 (A34) single antigen on beads (human); assay: as above
[22] = molecular target: HLA-A*3201 (A32) single antigen on beads (human); assay: as above
[23] = molecular target: HLA-A*3601 (A36) single antigen on beads (human); assay: as above
[24] = molecular target: HLA-A*3002 (A30) single antigen on beads (human); assay: as above
[25] = molecular target: HLA-A*6601 (A66) single antigen on beads (human); assay: as above
[26] = molecular target: HLA-A*3301 (A33) single antigen on beads (human); assay: as above
[27] = molecular target: Serum albumin on negative control beads (HSA/BSA) (human or bovine); assay: Luminex regular beads (#7), IVIg diluted 1:8
[28] = molecular target: HLA-B*0801 (B8) (human); assay: Luminex regular beads (#7), IVIg diluted 1:8
[29] = molecular target: HLA-B*1503 (B72) (human); assay: Luminex regular beads (#7), IVIg diluted 1:8
[30] = molecular target: HLA-B*1402 (B65) (human); assay: Luminex regular beads (#7), IVIg diluted 1:8
[31] = molecular target: HLA-B*1801 (B18) (human); assay: Luminex regular beads (#7), IVIg diluted 1:8
[32] = molecular target: HLA-B*1502 (B75) (human); assay: Luminex regular beads (#7), IVIg diluted 1:8
[33] = molecular target: HLA-B*1401 (B64) (human); assay: Luminex regular beads (#7), IVIg diluted 1:8
[34] = molecular target: HLA-B*1513 (B77) (human); assay: Luminex regular beads (#7), IVIg diluted 1:8
[35] = molecular target: HLA-B*0702 (B7) (human); assay: Luminex regular beads (#7), IVIg diluted 1:8
[36] = molecular target: HLA-B*1511 (B75) (human); assay: Luminex regular beads (#7), IVIg diluted 1:8
[37] = molecular target: HLA-B*1301 (B13) (human); assay: Luminex regular beads (#7), IVIg diluted 1:8
[38] = molecular target: HLA-B*1302 (B13) (human); assay: Luminex regular beads (#7), IVIg diluted 1:8
[39] = molecular target: HLA-B*1510 (B71) (human); assay: Luminex regular beads (#7), IVIg diluted 1:8
[40] = molecular target: HLA-B*1516 (B63) (human); assay: Luminex regular beads (#7), IVIg diluted 1:8
[41] = molecular target: HLA-B*1512 (B76) (human); assay: Luminex regular beads (#7), IVIg diluted 1:8
[42] = molecular target: HLA-Cw*0602 (Cw6) (human); assay: Luminex, iBead vs regular bead MFI, 1:8
[43] = molecular target: HLA-Cw*0302 (Cw10) (human); assay: Luminex, iBead vs regular bead MFI, 1:8
[44] = molecular target: HLA-A*6901 (A69) single antigen on Luminex beads (human); assay: Luminex single antigen bead assay, regular beads (#7), IVIg 1:8
[45] = molecular target: HLA-A*7401 (A74) single antigen on Luminex beads (human); assay: as above
[46] = molecular target: HLA-A*8001 (A80) single antigen on Luminex beads (human); assay: as above

IVIg GamaSTAN S/D (Talecris Biotherapeutics, USA) (antibody)
Difference % [1]: -2% | Difference % [2]: -54% | Difference % [3]: 33% | Difference % [4]: 24% | Difference % [5]: 13% | Difference % [6]: 22% | Difference % [7]: -45% | Difference % [8]: -20% | Difference % [9]: -57% | Difference % [10]: -9% | Difference % [11]: -54% | Difference % [12]: -26% | Difference % [13]: -9% | MFI [14]: 192 MFI | MFI [15]: 924 MFI | MFI [16]: 2360 MFI | MFI [17]: 322 MFI | MFI [18]: 991 MFI | MFI [19]: 684 MFI | MFI [20]: 121 MFI | MFI [21]: 3040 MFI | MFI [22]: 856 MFI | MFI [23]: 564 MFI | MFI [24]: 1050 MFI | MFI [25]: 1410 MFI | MFI [26]: 1120 MFI | MFI [27]: 3790 MFI | MFI [28]: 884 MFI | MFI [29]: 689 MFI | MFI [30]: 670 MFI | MFI [31]: 0 MFI | MFI [32]: 526 MFI | MFI [33]: 1750 MFI | MFI [34]: 1240 MFI | MFI [35]: 2220 MFI | MFI [36]: 2820 MFI | MFI [37]: 2240 MFI | MFI [38]: 2220 MFI | MFI [39]: 857 MFI | MFI [40]: 3540 MFI | MFI [41]: 2660 MFI

IVIg Gamunex-C Lot NKLG1 (antibody)
Difference % [1]: -58% | Difference % [2]: -54% | Difference % [42]: -65% | Difference % [5]: -32% | Difference % [6]: -6% | Difference % [7]: -52% | Difference % [43]: -2% | Difference % [8]: -51% | Difference % [9]: -45% | Difference % [10]: -47% | Difference % [11]: -32% | Difference % [12]: -28% | Difference % [13]: 1% | MFI [44]: 2810 MFI | MFI [45]: 666 MFI | MFI [46]: 3190 MFI | MFI [14]: 0 MFI | MFI [17]: 476 MFI | MFI [18]: 1750 MFI | MFI [19]: 0 MFI | MFI [20]: 166 MFI | MFI [21]: 3540 MFI | MFI [22]: 875 MFI | MFI [23]: 916 MFI | MFI [24]: 896 MFI | MFI [25]: 648 MFI | MFI [26]: 1690 MFI | MFI [27]: 10800 MFI | MFI [29]: 2380 MFI | MFI [30]: 2250 MFI | MFI [32]: 1520 MFI | MFI [34]: 4270 MFI | MFI [35]: 1540 MFI | MFI [36]: 4060 MFI | MFI [38]: 3100 MFI | MFI [39]: 1430 MFI | MFI [40]: 3760 MFI | MFI [41]: 816 MFI
